Data set [1] deals with the molecule itself. Put plainly: self-association; BS3 cross-linking (0-2 mM), anti-IIA immunoblot. The protocol:
J. 318:505-511 (1996)) (FIG. 8). Each mutant protein was covalently cross-linked and the presence of protein monomers, dimers or trimers was detected by immunoblotting using the anti-IIA antibody. […] The IIA NH₂-propeptide attached to the 35 amino acid stretch of the coiled-coil neck (mIIA-237) was also secreted as a non-covalent trimer. However, lower concentrations of cross-linker (0.1-0.2 mM) were sufficient for detection of mIIA-237 trimers compared to concentrations used to detect trimers of the other truncated mutant proteins (0.5-1 mM), and no dimeric intermediate was identified. Co-operativity exists between the IIA NH₂-propeptide collagen domain and the 14 amino acid sequence of the SP-D coiled-coil neck domain
To determine the minimum sequence that can function as a trimerizing unit, mutant constructs were designed containing termination codons at specific locations within the heptad repeats of the coiled-coil. Using IIA/SP-D cDNA in pGEM-3Z as a substrate, four mutant constructs were synthesized using the QuikChangem Site-Directed Mutagenesis Kit (Stratagene, La Jolla, Calif.). The sequence of the mutant was confirmed by DNA sequencing. […] Proteins were detected by SDS-PAGE and immunolocalization of Western blots using the anti-IIA polyclonal antibody.
(In general: A western blot detects proteins with antibodies after separation by electrophoresis.)

Data set [2] concerns the molecule itself. Put plainly: self-association; BS3 cross-linking, IIA Western blot. The text has this:
Chemical crosslinking was used to examine the state of oligomerization of the IIA collagen domain.

B1: mIIA-211 (other, human;rat, UniProt P02458 26-203, looked up)
chain: QDVQEAGSCVQDGQRYNDKDVWKPEPCRICVCDTGTVLCDDIICEDVKDCLSPEIPFGECCPICPTDLATASGQPGPKGQKGEPGDIKDIVGPKGPPGPQGPAGEQGPRGDRGDKGEKGAPGPRGRDGEPGTPGNPGPPGPPGPPGPPGLGGNFAAQMAGGFDEKAGGAQLGVMQGPMDSAALRQQ
notes: domain: NH2-propeptide (exons 1-8);domain: first heptad repeat of the coiled-coil neck domain; Truncation mutant of IIA/SP-D; also called IIA NH2-propeptide fused to the first heptad repeat
In the case of B1, the binding result in data set [1] was “no binding”.

B2: IIA NH2-propeptide synthesized without fusion to the neck/CRD domains of SP-D (other, human, UniProt P02458 26-203, looked up)
chain: QDVQEAGSCVQDGQRYNDKDVWKPEPCRICVCDTGTVLCDDIICEDVKDCLSPEIPFGECCPICPTDLATASGQPGPKGQKGEPGDIKDIVGPKGPPGPQGPAGEQGPRGDRGDKGEKGAPGPRGRDGEPGTPGNPGPPGPPGPPGPPGLGGNFAAQMAGGFDEKAGGAQLGVMQGPM
notes: domain: NH2-propeptide (exons 1-8); Transiently transfected CHO cells; secreted as monomers; also called control construct of full-length IIA NH2-propeptide only
Turning to B2, in data set [2], the binding result is “no binding”.

B3: mIIA-203 (other, human, UniProt P02458 26-203, looked up)
chain: QDVQEAGSCVQDGQRYNDKDVWKPEPCRICVCDTGTVLCDDIICEDVKDCLSPEIPFGECCPICPTDLATASGQPGPKGQKGEPGDIKDIVGPKGPPGPQGPAGEQGPRGDRGDKGEKGAPGPRGRDGEPGTPGNPGPPGPPGPPGPPGLGGNFAAQMAGGFDEKAGGAQLGVMQGPM
notes: domain: NH2-propeptide (exons 1-8); Truncation mutant of IIA/SP-D, control
For the protein B3, in data set [1], the binding result is recorded as “no binding”.
